From the supplement of paper PMC9112550, “Optimization of the antimicrobial peptide Bac7 by deep mutational scanning” (BMC Biology, 2022)

The sequences below were run on Escherichia coli TOP10 (assay: shrunken log2 fold change of peptide-encoding DNA abundance (4.5 h post-induction vs induction); higher = less antimicrobial activity (less host growth inhibition)). Conditions: time post-induction: 4.5 h; library: site-saturation at positions 5, 18, 19, 20.
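Note: peptides expressed intracellularly from a pBAD plasmid library in pooled LB shake-flask culture, induced with 0.3% L-arabinose, DNA abundance read by NGS, three biological replicates, DESeq2 with apeglm shrinkage.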

Row | Sequence | shrunken log2 fold change
1 | RRIRYRPPRLPRPRPRPTNIPRP | -0.841
2 | RRIRRRPPRLPRPRPRPNKEPRP | -0.0865
3 | RRIRKRPPRLPRPRPRPQHSPRP | -0.288
4 | RRIRRRPPRLPRPRPRPRYDPRP | 0.0442
5 | RRIRMRPPRLPRPRPRPKSVPRP | 0.0926
6 | RRIRWRPPRLPRPRPRPWGFPRP | 0.27
7 | RRIRDRPPRLPRPRPRPEEEPRP | 0.00884
8 | RRIRCRPPRLPRPRPRPSWPPRP | -0.155
9 | RRIRIRPPRLPRPRPRPKERPRP | -0.00236
10 | RRIRNRPPRLPRPRPRPDESPRP | -0.109
11 | RRIRYRPPRLPRPRPRPRHWPRP | 0.272
12 | RRIRDRPPRLPRPRPRPPLTPRP | 0.307
13 | RRIRSRPPRLPRPRPRPFYWPRP | -0.0331
14 | RRIRGRPPRLPRPRPRPELGPRP | 1.45
15 | RRIRTRPPRLPRPRPRPIFCPRP | -0.327
16 | RRIRQRPPRLPRPRPRPPNAPRP | 0.285
17 | RRIRARPPRLPRPRPRPPSKPRP | 0.491
18 | RRIRYRPPRLPRPRPRPPNQPRP | -0.44
19 | RRIRIRPPRLPRPRPRPRRCPRP | 0.221
20 | RRIRWRPPRLPRPRPRPVYWPRP | 0.14

Row | Sequence | shrunken log2 fold change
21 | RRIRWRPPRLPRPRPRPTSDPRP | -0.0119
22 | RRIRVRPPRLPRPRPRPRFKPRP | 0.107
23 | RRIRFRPPRLPRPRPRPKSIPRP | -0.0406
24 | RRIRRRPPRLPRPRPRPEICPRP | 0.181
25 | RRIRNRPPRLPRPRPRPLKDPRP | -0.0618
26 | RRIRTRPPRLPRPRPRPHSVPRP | 0.0184
27 | RRIRKRPPRLPRPRPRPNWWPRP | -0.382
28 | RRIRIRPPRLPRPRPRPRELPRP | -0.019
29 | RRIRGRPPRLPRPRPRPQFCPRP | 0.719
30 | RRIRVRPPRLPRPRPRPEIQPRP | 0.349
31 | RRIRRRPPRLPRPRPRPWVCPRP | 0.0925
32 | RRIRDRPPRLPRPRPRPFLQPRP | -0.091
33 | RRIRPRPPRLPRPRPRPKTKPRP | 0.00358
34 | RRIRIRPPRLPRPRPRPVFEPRP | 0.0673
35 | RRIRARPPRLPRPRPRPPCLPRP | 0.224
36 | RRIRCRPPRLPRPRPRPWEGPRP | -0.00146
37 | RRIRLRPPRLPRPRPRPEMTPRP | 0.276
38 | RRIRWRPPRLPRPRPRPTKRPRP | 0.202
39 | RRIRWRPPRLPRPRPRPFGDPRP | -0.249
40 | RRIRLRPPRLPRPRPRPHVHPRP | -0.0727

Row | Sequence | shrunken log2 fold change
41 | RRIRGRPPRLPRPRPRPYSAPRP | -0.29
42 | RRIRLRPPRLPRPRPRPVHWPRP | 0.4
43 | RRIRYRPPRLPRPRPRPHTKPRP | -0.149
44 | RRIRERPPRLPRPRPRPNAYPRP | -0.0628
45 | RRIRQRPPRLPRPRPRPDHIPRP | -0.0197
46 | RRIRHRPPRLPRPRPRPPGLPRP | 0.0255
47 | RRIRTRPPRLPRPRPRPEGPPRP | 0.285
48 | RRIRMRPPRLPRPRPRPYLTPRP | -0.268
49 | RRIRGRPPRLPRPRPRPWFLPRP | -0.149
50 | RRIRQRPPRLPRPRPRPVYNPRP | -0.0538
51 | RRIRSRPPRLPRPRPRPNCKPRP | -0.228
52 | RRIRVRPPRLPRPRPRPKRFPRP | -0.0543
53 | RRIRCRPPRLPRPRPRPSSKPRP | -0.48
54 | RRIRIRPPRLPRPRPRPNHAPRP | -0.0782
55 | RRIRNRPPRLPRPRPRPHKQPRP | -0.359
56 | RRIRKRPPRLPRPRPRPHQIPRP | 0.0638
57 | RRIRHRPPRLPRPRPRPCSQPRP | -0.00141
58 | RRIRPRPPRLPRPRPRPEKCPRP | 0.156
59 | RRIRWRPPRLPRPRPRPRQSPRP | 0.236
60 | RRIRPRPPRLPRPRPRPMTMPRP | -0.469
